In IntAct's records for PubMed 21102444:

B1: Elongation factor 1 alpha-like protein (Saccharomyces cerevisiae), P32769 (parent)
chain: MAYSDYSDGADDMPDFHDEGEFDDYLNDDEYDLMNEVFPTLKAQLQDYQGWDNLSLKLALFDNNFDLESTLAELKKTLKKKKTPKKPIAAANGSANVTQKLANISISQQRPNDRLPDWLDEEESEGERNGEEANDEKTVQRYYKTTVPTKPKKPHDISAFVKSALPHLSFVVLGHVDAGKSTLMGRLLYDLNIVNQSQLRKLQRESETMGKSSFKFAWIMDQTNEERERGVTVSICTSHFSTHRANFTIVDAPGHRDFVPNAIMGISQADMAILCVDCSTNAFESGFDLDGQTKEHMLLASSLGIHNLIIAMNKMDNVDWSQQRFEEIKSKLLPYLVDIGFFEDNINWVPISGFSGEGVYKIEYTDEVRQWYNGPNLMSTLENAAFKISKENEGINKDDPFLFSVLEIIPSKKTSNDLALVSGKLESGSIQPGESLTIYPSEQSCIVDKIQVGSQQGQSTNHEETDVAIKGDFVTLKLRKAYPEDIQNGDLAASVDYSSIHSAQCFVLELTTFDMNRPLLPGTPFILFIGVKEQPARIKRLISFIDKGNTASKKKIRHLGSKQRAFVEIELIEVKRWIPLLTAHENDRLGRVVLRKDGRTIAAGKISEITQ
partner: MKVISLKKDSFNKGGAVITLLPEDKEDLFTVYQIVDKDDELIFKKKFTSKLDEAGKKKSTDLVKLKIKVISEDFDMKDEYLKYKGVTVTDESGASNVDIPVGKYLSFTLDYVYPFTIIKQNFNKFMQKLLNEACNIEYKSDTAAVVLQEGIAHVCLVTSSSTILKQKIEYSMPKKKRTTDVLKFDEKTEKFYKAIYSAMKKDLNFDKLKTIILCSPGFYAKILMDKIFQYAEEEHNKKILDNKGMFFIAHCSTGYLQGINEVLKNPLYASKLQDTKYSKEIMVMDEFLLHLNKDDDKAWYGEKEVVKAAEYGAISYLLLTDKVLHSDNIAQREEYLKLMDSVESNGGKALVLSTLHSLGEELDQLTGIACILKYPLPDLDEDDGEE
B2: Protein DOM34 (Saccharomyces cerevisiae), P33309 (parent)
chain: B1 partner
partner: B1 chain

Variants of: B1
Conditions: with dom34_yeast DOM34, P33309

| Variant | effect of a mutation on the interaction |
| --- | --- |
| R517E | disrupting interaction |
| L520R | disrupting interaction |

Next, values leading:

| effect of a mutation on the interaction | Variant |
| --- | --- |
| disrupting interaction | R557A;H558A |
| disrupting interaction | R256A;D257A;F258A |

Variants of: B2
Conditions: with hbs1_yeast HBS1, P32769

| Variant | effect of a mutation on the interaction |
| --- | --- |
| MKVISLKKDSFNKGGAVITLLPEDKEDLFTVYQIVDKDDELIFKKKFTSKLDEAGKKKSTDLVKLKIKVISEDFDMKDEYLKYKGVTVTDESGASNVDIPVGKYLSFTLDYVYPFTIIKQNFNKFMQKLLNEACNIEYKSDTAAVVLQEGIAHVCLVTSSSTILKQKIEYSMPKKKRTTDVLKFDEKTEKFYKAIYSAMKKDLNFDKLKTIILCSPGFYAKILMDKIFQYAEEEHNKKILDNKGMFFIAHCSTGYLQGINEVLKNPLYASKLQDTKYSKEIMVMDEFLLHLNKDDDKAWYGEKEVVKAAEYGAISYLLLTDKVLHSDNIAQREEYLKLMDSVESNGGKALVLSTLHSLGERLDQLTGIACILKYPLPDLDEDDGEE [E361R] | disrupting interaction |
| MKVISLKKDSFNKGGAVITLLPEDKEDLFTVYQIVDKDDELIFKKKFTSKLDEAGKKKSTDLVKLKIKVISEDFDMKDEYLKYKGVTVTDESGASNVDIPVGKYLSFTLDYVYPFTIIKQNFNKFMQKLLNEACNIEYKSDTAAVVLQEGIAHVCLVTSSSTILKQKIEYSMPKKKRTTDVLKFDEKTEKFYKAIYSAMKKDLNFDKLKTIILCSPGFYAKILMDKIFQYAEEEHNKKILDNKGMFFIAHCSTGYLQGINEVLKNPLYASKLQDTKYSKEIMVMDEFLLHLNKDDDKAWAGEKEVVKAAEYGAISYLLLTDKVLHSDNIAQREEYLKLMDSVESNGGKALVLSTLHSLGEALDQLTGIACILKYPLPDLDEDDGEE [Y300A;E361A] | disrupting interaction |

Other lines, results leading:

| effect of a mutation on the interaction | Variant |
| --- | --- |
| disrupting interaction | MKVISLKKDSFNKGGAVITLLPEDKEDLFTVYQIVDKDDELIFKKKFTSKLDEAGKKKSTDLVKLKIKVISEDFDMKDEYLKYKGVTVTDESGASNVDIPVGKYLSFTLDYVYPFTIIKQNFNKFMQKLLNEACNIEYKSDTAAVVLQEGIAHVCLVTSSSTILKQKIEYSMPKKKRTTDVLKFDEKTEKFYKAIYSAMKKDLNFDKLKTIILCSPGFYAKILMDKIFQYAEEEHNKKILDNKGMFFIAHCSTGYLQGINEVLKNPLYASKLQDTKYSKEIMVMDEFLLHLNKDDDKAWYGEKEVVKAAEYGAISYLLLTDKVLHSDNIAQREEYLKLMDSVESNGGKALVLSTLHSLGEALDALTGIACILKYPLPDLDEDDGEE [E361A;Q364A] |
| disrupting interaction | MKVISLKKDSFNKGGAVITLLPEDKEDLFTVYQIVDKDDELIFKKKFTSKLDEAGKKKSTDLVKLKIKVISEDFDMKDEYLKYKGVTVTDESGASNVDIPVGKYLSFTLDYVYPFTIIKQNFNKFMQKLLNEACNIEYKSDTAAVVLQEGIAHVCLVTSSSTILKQKIEYSMPAAAATTDVLKFDEKTEKFYKAIYSAMKKDLNFDKLKTIILCSPGFYAKILMDKIFQYAEEEHNKKILDNKGMFFIAHCSTGYLQGINEVLKNPLYASKLQDTKYSKEIMVMDEFLLHLNKDDDKAWYGEKEVVKAAEYGAISYLLLTDKVLHSDNIAQREEYLKLMDSVESNGGKALVLSTLHSLGEELDQLTGIACILKYPLPDLDEDDGEE [K174A;K175A;K176A;R177A] |
| disrupting interaction | MKVISLKKDSFNKGGAVITLLPEDKEDLFTVYQIVDKDDELIFKKKFTSKLDEAGKKKSTDLVKLKIKVISEDFDMKDEYLKYKGVTVTDESGASNVDIPVGKYLSFTLDYVYPFTIIKQNFNKFMQKLLNEACNIEYKSDTAAVVLQEGIAHVCLVTSSSTILKQKIEYSMPKKKRTTDVLKFDEKTEKFYKAIYSAMKKDLNFDKLKTIILCAAGAYAKILMDKIFQYAEEEHNKKILDNKGMFFIAHCSTGYLQGINEVLKNPLYASKLQDTKYSKEIMVMDEFLLHLNKDDDKAWYGEKEVVKAAEYGAISYLLLTDKVLHSDNIAQREEYLKLMDSVESNGGKALVLSTLHSLGEELDQLTGIACILKYPLPDLDEDDGEE [S215A;P216A;F218A] |
